Results from the DeepSol protein solubility set.

assay: soluble on expression in E. coli; label from the status in PepcDB or PDB records

Sequence	soluble on expression in E. coli
MGSDKIHHHHHHMARLLSELQPSEFDITVVAIADTPPDVVSMLPDHVEVKHLKMTRRTALLQLGEISKIVKSTDILVCSLFHATAIGVPLGLLLQVPKLLVWQHSTSYSNQIRSAYYRLAYRAADRVLADSDAVMEMLVDSVGVPDQKISTLPIAGIDVKEYQPSKTHPSHENITVSTVGRLANVKGYDDLIRCARDIGDDLQFQIAGEGEERERLESKTPDNVNFQGMVPNEQIPQFLNNSDIYFQPSKYEGLCMAVIEAMACGLPVVASDVGGITESVVPGETGFLCRPRDIDCFSERLQQLSENPALRKQMGTAGRKRVISEYSQKALARQFRKAIDQTETV	not soluble
MAHHHHHHMSITSRFIGGVKHLLKGGSMKYLAAGEPYCPFGEAFGLTILPEYILEDDASNLRKGYVDVYTRASDRIILNDGRFQLPPLPPASFMPLLERLEQDNVVPKSWLNNQTANLYEPGDFIRAHIDNLFVYDDIFAICSLGSNCLLRFVHVQNGEELDVMVPDRSVYIMSGPARYVYFHMVLPVEAQRFSLVFRRSIMESDGGF	not soluble
MGSDKIHHHHHHMWTPDALSSEVRPYRQDVWRVVEAQSRASTMRLVDSLEEQRLLEDLIDEVKPPVPPSCRQFHYLLSTPFRYGPYPTGSRFRRAGQQDGVFYASESVETAIAELAFYRLLFFVESPGTDLPARPTDHMAFSVPCVADRLIDLTLPPLAQDEAKWVNRLDYTACQDLADIARSARIEAIRYRSVRDPDGGCNLGVLTPAALGATKPQRLETWRLFIRPTGIQVAREFPRAEREFTCADFGADPRLDPFWIRP	not soluble
MYKVSHGLSMVHEDEMGVNAPMDHQRVISKLNVGLGKLFYYDKAISLEPLPETMLDEGRTSRYDGPPTPDLILYDKARDHIPVIIEVCHTRGLKGDLQKVVSLIEDFPYDILEGFVYNYRTEHWFRYRKGDNGIATETSFSEILQLDLNQFL	not soluble
MPKLYVIPTPIGNLKDITLRALEVLKEVNYIACEDTRRTMILLNHYGIKGKKLISYYEPKEEKQIPKILKVLEKEDVALVTDAGMPAISDPGYRLIRKCIEKGIEIEVLPGPSAVITALVGSGLPPDRFLFVGFPPKKGTKGFFEELKSCEDTTVILFENPNRLLKTLKIIHEVFGNVQACVARELTKLHEEYIRGNLEEIIQELESREKIKGEVVVLFRILEHHHHHH	soluble
MRIHILGICGTFMGGLAMLARSLGHEVTGSDANVYPPMSTLLEKQGIDLIQGYDASQLDPQPDLVIIGNAMTRGNPCVEAVLEKNIPFMSGPQWLHDFVLRDRWVLAVAGTHGKTTTAGMATWILEACGYKPGFVIGGVPGNFEVSARLGESPFFVIEADEYDCAFFDKRSKFVHYCPRTLILNNLEFDHADIFDDLKAIQKQFHHLVRIVPGQGRIIWPENDINLKQTMALGCWSEQELVGEQGHWQAKKLTTDASEWEVWLDGEKVGDVKWGLVGEHNMHNGLMAIAAARHVGVAPAEAASALGSFINARRRLELRGEANGVTVYDDFAHHPTAILATLAALRGKVGGTARIIAVLEPRSNTMKMGLCKDDLAPSLGRADEVFLLQPPHIPWQVAEVAEACVQPAHWSGDVDTLAEMVVKTAQPGDHILVMSNGGFGGIHQKLLDGLAKKAQNVTAY	not soluble
SLHAQTFHSDSLLSQEEAAAAGDRRPAPDTWIYPLIQMKPFEIQIDEIVTETLLMEAERGAKVFLTTGYFNLTQAYMDLVLGTRAEYQILLASPEVNGFFGAKGVAGAIPAAYVHIERQFYSEVCSLGQQDRVQLQEYWRRGWTFHAKGLWLYLAGSSLPCLTLIGSPNFGYRSVHRDLEAQIAIVTESRSLQQQLHQEQEQLYLRSGVVTSATFEQPGRQVKLWVKMVTPLIKNFF	soluble
PMDDIVRIHASSGTTGKPTVVGYTRKDIEIWSELMARSFAAAGVHKGDIIHNAYGYGLFTGGLGAHYGAERLGASVIPMSGGNTKKQIMIMKDFGSTVLTCTPSYSLFMAEAAREEGVDFRQLKLHVGIFGAEPWSESMRAEIEQKLNLCAIDIYGLSEIMGPGVAIECREAKKGLHI	not soluble
FNKDGKFKIVQFTDVHFKYGNPASDVALERIGEVLDAEHPDLVIFTGDVVYSSPADKGMLQVLGQVERRHLPFVVTFGNHDNEQGKTRAELYDLIRGVAGNLLPDRGASPSPDYILTMKSSADASKDAALLYCMDSHSYSSLKDVDGYAWLTFGQVSWYRAQSAAYTARNGGKPYPALAFFHIPLPEYNEAAANENAILRGTRMEKACAPQLNTGMFAAMKEAGDVMGVFVGHDHDNDYAVMWKNILLAYGRFTGGNTEYNHLPNGARVIVLNEGTRTFETWIRQKGGVVDSTSYPSDYVKDDWRKR	not soluble
MSLKYLGLCTDLYELTMAQSYLYEGKTGTAVFSLFVRKLPEKRNFLISAGLETLVERIKNFKFGDEEIKYLKSLGIFKDDFLDYLKDFEFSGNVYAIPEGRIVFQNEPLVQVEAPIPEAQLLETLVINTIQFETMIASKAVRSYLVAKGKKLVDFGFRRAHGLEAGILAARASYIAGFDGTSNVEAGREFGIPVVGTMAHSYVMIFDKEEDAFRAFAKLYPKNAIFLIDTYDTIEAAKKVVDLAKEGVPVVGVRIDSGDIVKLSKEVRKILDENGLKNVRIIVSGGVDEYKIKEWFDRGAPIDAFGVGTKFITSADAPYFDIAYKLVEYEGKPKYKLSPGKKTFPYKRQVYRYYENGKMKYDETAKWESKREGEPLVELVMKNGKLIKELPSLKEIREVVMSELEKLPENYKDITKHYEYEVKILDWEEGHHHHHH	not soluble
MNIEIKDTLISEEQLQEKVKELALQIERDFEGEEIVVIAVLKGSFVFAADLIRHIKNDVTIDFISASSYGNQTETTGKVKLLKDIDVNITGKNVIVVEDIIDSGLTLHFLKDHFFMHKPKALKFCTLLDKPERRKVDLTAEYVGFQIPDEFIVGYGIDCAEKYRNLPFIASVVTEESYNLKSR	soluble
EHVEMLSAAGATVVAFDPLSEQLPQCDGLIIPGGFPEEHCDVLEQRADLKQQVCDVIAQGIPVHAECAGLLWLLSTLDGRPMLDVIPTHGAMGRRLTLGYRDAVVVHDSVIYRAGERVTGHEFHHTAIADSVVPGWDSAWGWRAWDGSPKVEGFVSGNVHASYLHVHPAAVPAAVRRFVEACAR	not soluble
MKKGCKYGTHRVIEPAGVLPQPAKKISNDMEIFSNEILIDVIALNIDSASFTQIEEEAGHDVEKVKAKIKEIVAERGKMQNPVTGSGGMLIGTVEKIGDDLVGKTDLKVGDKIATLVSLSLTPLRIDEIINIKPEIDRVEIKGKAILFESGIYAVLPKDMPENLALAALDVAGAPAQVAKLVKPCQSVAILGSAGKSGMLCAYEAVKRVGPTGKVIGVVRNDKEKALLQRVSDKVKIVIADATKPMDVLHAVLEANDAKEVDVAINCVNVPNTEMSTILPVKEFGIAYFFSMATGFSKAALGAEGVGKDITMIVGNGYTVDHAAITLEELRESAVLREIFNEIYLLEHHHHHH	soluble
MDNIVTESIKFESEPNYLQRGYHLFDISFLNGLTCVITNKIETDEIHLKIKLDWDERDIEKITGFIQLSYDGHQLKPIDSNFDKRGGICTIIVPKFLYEYRWSFSFNLKLHRDPAKPPQISNDLKSQVSYDTMFEPSRKHDAVLLIGEKKLHVNKAFLSYHSDYFSDLFAEKVDEKNGIPIENVTYENFGLLMSVIYPEAVFSNHQNAEVLLELGNRFKIPAVMRHVENQIVGDTTKFPNKRLISLAEKYGLQKLLAMEIQKMKSFDQAKKFKGSDDYLQLSDATKAKIFDRLIELS	not soluble
MSLQFSFDPVSNAPMVSFPSTQQPDLEKLRFKFAPVLSRSFAFNGGSRTGTLYGVQVPYVDNSKEFSQYAAKLFEVYKSLGADKQFAVPTIGLINHTSTLEHNQTVNLALEAIVSELELFIESLKYSGRQQRLVDLEECLSILNCLKTVQFTLDSEEENSRAKFIDSLISWVNRTDGEPSEAVIAKVLGDGKQTPILENPYFWRLLCQLIIRGLFDQAVAAIEKSELLSYLADKCSATHTMVQDMVNLLQGYPRELEPVYREWKDLVLQLHLNWSQSEHKISIELASSLEDCLLIMCGNKSKIIYYSKTWYECYCGLMLYYIPSLQLSEEYLQLVLKEHPLDVTSPWEQACVSIITGKIYSILPVLDSLDSCTAAFTAAICEAKGLLENDLLDDGGLEVSNTGDEMFGLGNTMASYLLNQFALSIVTYEDKNLWAVAIGIIYLTPNYSDAAKRMMIAELLPHYPFQTNDDIEWMLTICAKWKLPQIARTIYRVLGQEALYLNNIIEAISNFSKAGEFEWVKEGHHHHHH	soluble
VVPAQHRPPDRPGDPAHDPGRGRRLGIDVGAARIGVACSDPDAILATPVETVRRDRSGKHLRRLAALAAELEAVEVIVGLPRTLADRIGRSAQDAIELAEALARRVSPTPVRLADERLTTVSAQRSLRQAGVRASEQRAVIDQAAAVAILQSWLDERLAAMAGTQEGSDA	not soluble
MGSSHHHHHHGSTKYALVGDVGGTNARLALCDIASGEISQAKTYSGLDYPSLEAVIRVYLEEHKVEVKDGCIAIACPITGDWVAMTNHTWAFSIAEMKKNLGFSHLEIINDFTAVSMAIPMLKKEHLIQFGGAEPVEGKPIAVYGAGTGLGVAHLVHVDKRWVSLPGEGGHVDFAPNSEEEAIILEILRAEIGHVSAERVLSGPGLVNLYRAIVKADNRLPENLKPKDITERALADSCTDCRRALSLFCVIMGRFGGNLALNLGTFGGVFIAGGIVPRFLEFFKASGFRAAFEDKGRFKEYVHDIPVYLIVHDNPGLLGSGAHLRQTLGHIL	soluble
IAPTVWKLADRSKIYMADLESALHYILRIEVGRFPVLEGQRLVALKKFVAVLAKYFPGRPLVQNFLHSVNEWLKRQKRNKIPYSFFKTALDDRKEGAVLAKKVNWIGCQGSEPHFRGFPCSLWVLFHFLTVQAARQNVDHSQEAAKAKEVLPAIRGYVHYFFGCRDCASHFEQMAAASMHRVGSPNAAVLWLWSSHNRVNARLAGAPSEDPQFPKVQWPPRELCSACHNERLDVPVWDVEATLNFLKAHFSPSNIILDFPA	soluble
MGHHHHHHSHMHDSANCELPLLTPCSKAVMSQALKATFSGFKKEQRRLGIPKNPWLWSEQQVCQWLLWATNEFSLVNVNLQRFGMNGQMLCNLGKERFLELAPDFVGDILWEHLEQMIKENQEKTE	not soluble
MSKNRQIQGCEVNECLHLDSTKPKSMLNKVKSVHSGFLGEPCVSVCCVCASSPVFLRRYFEWQPFSPREPHVWSTDRPLKVIDLTHLLFTEQMSDCVLGCTPQHCRLQSPVFARDTVLEVEVLLYSSLRFAHCSVDTRRPAFCSL	not soluble
MCQLDVASIGDIASYRLSPISKLRYLRHTESPKSPKSSIAIPRKRYKRYRQISRMPKNHFWKNGDISYTETHIGDIFNMPYFQISIFPISPSLSAINTTIARHEFSRRQKSQNAYFGQTHILLFTAAYSPFLEHHHHHH	soluble
MVRVDVEERFNRIARNTVEIVTEEELKGLLASGARIKGYIGYEPSGVAHIGWLVWMYKVKDLVEAGVDFSVLEATWHAYINDKLGGDMDLIRAAARIVRRVMEAAGVPVERVRFVDAEELASDKDYWGLVIRVAKRASLARVRRALTIMGRRAEEAEVDASKLIYPLMQVSDIFYMDLDIALGGMDQRKAHMLARDVAEKLGRKKPVAIHTPIISSLQGPGRMEASQGEIDDVLAEVKMSKSKPETAVFVVDSDDDIRRKIRKAYCPAKQVQGNPVLEIARYILFARDGFTLRVDRPAKYGGPVEYTSYEELERDYTDGRLHPLDLKNAVAESLIEVVRPIRGAVLGDPAMKRALEAIEGKVTR	soluble
MRLFKRYTPSMIAKHISRLFKGRIYIYGVGRFEFDNGKLILPEKAEQRHFRAVKEINQEIMKLRCAYALEHHHHHH	not soluble
